Experimental data reported in US20220177604A1 (ARGENX, published 2022).
Where a chain is given by its changes, count along the chain named.

B1: Oma VH15W100b - VL3D28H (antibody, V domains shown)
VH: EVQLVESGGGLVQPGGSLRLSCAVSGYSITSGHRWEWIRQAPGKGLEWVASIHYDGSTNYNPSVKGRITISRDDSKNTFYLQMNSLRAEDTAVYYCARATHYFGHHHFAVWGQGTLVTVSS
VL: DIQLTQSPSSLSASVGDRVTITCRASQSVDYHGDSYMNWYQQKPGKAPKLLIEWGSYLRSGVPSRFSGSGSGTDFTLTISSLQPEDFATYYCQQNAEDPYTFGQGTKVEIK
notes: also called Oma VH15W100b VL3D25H
B2: Oma VH15W100b - VL3D28HS31H (antibody, V domains shown)
VH: B1 VH
VL: B1 VL with S35H
B3: Oma VH15W100b - VL3S31H (antibody, V domains shown)
VH: B1 VH
VL: B1 VL with H32D, S35H
B4: OmaVH15G55HW100b - VL3S31H (antibody, V domains shown)
VH: B1 VH with G56H
VL: B1 VL with H32D, S35H
B5: CL-2C mAb 1 (antibody, V domains shown)
VH: QVQLVQSGAEVMKPGSSVKVSCKASGYTFSWYWLEWVRQAPGHGLEWMGEIDPGTFTTHYNEKFKARVTFTADTSTSTAYMELSSLRSEDTAVYYCARFSHFSGSHYDYFDYWGQGTLVTVSS
VL: EIVMTQSPATLSVSPGERATLSCRASQHIGTNIHWYQQKPGQAPRLLIYYASESISGIPARFSGSGSGTEFTLTISSLQSEDFAVYYCQQSWSHPTTFGGGTKVEIK
notes: also called CL-20 mAb 1; VK28H94H + VH58H100BH
B6: CL-2C mAb 12 (antibody, V domains shown)
VH: B5 VH with W33H, H59N, H106N, Y107H
VL: B5 VL with H28S, Y50H
notes: also called VK50H94H + VH33H100CH
B7: CL-2C mAb 29 (antibody, V domains shown)
VH: B5 VH with W33H, H59N, S105H, H106N
VL: B5 VL with H28S, Y50H, H94W
notes: also called VK50H + VH33H100AH
B8: CL-2C mAb 2 (antibody, V domains shown)
VH: B5 VH with W33H, H59N, H106N, Y107H
VL: B5 VL
notes: also called CL-20 mAb 2; VK28H94H + VH33H100CH
B9: CL-2C mAb 9 (antibody, V domains shown)
VH: B5 VH with W33H, H59N, S105H, H106N
VL: B5 VL with H28S, Y50H, Q89H, W92D, H94W
notes: also called VK50H92D89H + VH33H100AH
B10: CL-2C mAb 7 (antibody, V domains shown)
VH: B5 VH with W33H, H59N, H106N, Y107H
VL: B5 VL with H28S, Y50H, Q89H, W92D, H94W
notes: also called VK50H92D89H + VH33H100CH
B11: CL-2C mAb 33 (antibody, V domains shown)
VH: B5 VH with W33H, H59N
VL: B5 VL with H28S
notes: also called VK94H + VH33H100BH
B12: CL-2C mAb 32 (antibody, V domains shown)
VH: B5 VH with W33H, H59N, H106N, Y107H
VL: B5 VL with H28S
notes: also called VK94H + VH33H100CH
B13: CL-2C mAb 13 (antibody, V domains shown)
VH: B5 VH with W33H, H59N
VL: B5 VL with H28S, Y50H
notes: also called VK50H94H + VH33H100BH
B14: CL-2C mAb 14 (antibody, V domains shown)
VH: B5 VH with W33H, H59N, S105H, H106N
VL: B5 VL with H28S, Y50H
notes: also called VK50H94H + VH33H100AH
B15: CL-2C mAb 10 (antibody, V domains shown)
VH: B5 VH with H59N, H106N
VL: B5 VL with H28S, Y50H, Q89H, W92D, H94W
notes: also called VK50H92D89H + VHWT
B16: CL-2C mAb 6 (antibody, V domains shown)
VH: B5 VH
VL: B5 VL with H28S, Y50H, Q89H, W92D, H94W
notes: also called VK50H92D89H + VH58H100BH
B17: CL-2C mAb 39 (antibody, V domains shown)
VH: B5 VH with W33H, H59N, S105H, H106N
VL: B5 VL with H28S, H94W
notes: also called VKWT + VH33H100AH
B18: CL-2C mAb 38 (antibody, V domains shown)
VH: B5 VH with W33H, H59N
VL: B5 VL with H28S, H94W
notes: also called VKWT + VH33H100BH
B19: CL-2C mAb 4 (antibody, V domains shown)
VH: B5 VH with W33H, H59N, S105H, H106N
VL: B5 VL
notes: also called VK28H94H + VH33H100AH
B20: CL-2C mAb 34 (antibody, V domains shown)
VH: B5 VH with W33H, H59N, S105H, H106N
VL: B5 VL with H28S
notes: also called VK94H + VH33H100AH
B21: CL-2C mAb 27 (antibody, V domains shown)
VH: B5 VH with W33H, H59N, H106N, Y107H
VL: B5 VL with H28S, Y50H, H94W
notes: also called VK50H + VH33H100CH
B22: CL-2C mAb 5 (antibody, V domains shown)
VH: B5 VH with H59N, H106N
VL: B5 VL
notes: also called VK28H94H + VHWT
B23: CL-2C mAb 20 (antibody, V domains shown)
VH: B5 VH with H59N, H106N
VL: B5 VL with H28S, Y50H, W92D
notes: also called VK50H92D94H + VHWT
B24: CL-2C mAb 36 (antibody, V domains shown)
VH: B5 VH
VL: B5 VL with H28S, H94W
notes: also called VKWT + VH58H100BH
B25: CL-2C mAb 26 (antibody, V domains shown)
VH: B5 VH
VL: B5 VL with H28S, Y50H, H94W
notes: also called VK50H + VH58H100BH
B26: CL-2C mAb 19 (antibody, V domains shown)
VH: B5 VH with W33H, H59N, S105H, H106N
VL: B5 VL with H28S, Y50H, W92D
notes: also called VK50H92D94H + VH33H100AH
B27: CL-2C mAb 40 (antibody, V domains shown)
VH: B5 VH with H59N, H106N
VL: B5 VL with H28S, H94W
notes: also called VKWT + VHWT
B28: CL-2C mAb 17 (antibody, V domains shown)
VH: B5 VH with W33H, H59N, H106N, Y107H
VL: B5 VL with H28S, Y50H, W92D
notes: also called VK50H92D94H + VH33H100CH
B29: CL-2C mAb 11 (antibody, V domains shown)
VH: B5 VH
VL: B5 VL with H28S, Y50H
notes: also called VK50H94H + VH58H100BH
B30: CL-2C mAb 30 (antibody, V domains shown)
VH: B5 VH with H59N, H106N
VL: B5 VL with H28S, Y50H, H94W
notes: also called VK50H + VHWT
B31: CL-2C mAb 28 (antibody, V domains shown)
VH: B5 VH with W33H, H59N
VL: B5 VL with H28S, Y50H, H94W
notes: also called VK50H + VH33H100BH
B32: CL-2C mAb 35 (antibody, V domains shown)
VH: B5 VH with H59N, H106N
VL: B5 VL with H28S
notes: also called VK94H + VHWT
B33: CL-2C mAb 8 (antibody, V domains shown)
VH: B5 VH with W33H, H59N
VL: B5 VL with H28S, Y50H, Q89H, W92D, H94W
notes: also called VK50H92D89H + VH33H100BH
B34: CL-2C mAb 16 (antibody, V domains shown)
VH: B5 VH
VL: B5 VL with H28S, Y50H, W92D
notes: also called VK50H92D94H + VH58H100BH
B35: CL-2C mAb 31 (antibody, V domains shown)
VH: B5 VH
VL: B5 VL with H28S
notes: also called VK94H + VH58H100BH
B36: CL-2C mAb 3 (antibody, V domains shown)
VH: B5 VH with W33H, H59N
VL: B5 VL
notes: also called VK28H94H + VH33H100BH
B37: CL-2C mAb 15 (antibody, V domains shown)
VH: B5 VH with H59N, H106N
VL: B5 VL with H28S, Y50H
notes: also called VK50H94H + VHWT
B38: CL-2C mAb 18 (antibody, V domains shown)
VH: B5 VH with W33H, H59N
VL: B5 VL with H28S, Y50H, W92D
notes: also called VK50H92D94H + VH33H100BH
B39: OmaVH15G55HW100b - VL3D28HS31H (antibody, V domains shown)
VH: B1 VH with G56H
VL: B1 VL with S35H
notes: human IgG1

Target: T1, human immunoglobulin E (hIgE) (human, UniProt P01854-1 1-428)
T1 construct: also called human IgE; Native IgE (Abcam)
Test: SPR (Biacore)

T1 sequence (P01854 whole entry): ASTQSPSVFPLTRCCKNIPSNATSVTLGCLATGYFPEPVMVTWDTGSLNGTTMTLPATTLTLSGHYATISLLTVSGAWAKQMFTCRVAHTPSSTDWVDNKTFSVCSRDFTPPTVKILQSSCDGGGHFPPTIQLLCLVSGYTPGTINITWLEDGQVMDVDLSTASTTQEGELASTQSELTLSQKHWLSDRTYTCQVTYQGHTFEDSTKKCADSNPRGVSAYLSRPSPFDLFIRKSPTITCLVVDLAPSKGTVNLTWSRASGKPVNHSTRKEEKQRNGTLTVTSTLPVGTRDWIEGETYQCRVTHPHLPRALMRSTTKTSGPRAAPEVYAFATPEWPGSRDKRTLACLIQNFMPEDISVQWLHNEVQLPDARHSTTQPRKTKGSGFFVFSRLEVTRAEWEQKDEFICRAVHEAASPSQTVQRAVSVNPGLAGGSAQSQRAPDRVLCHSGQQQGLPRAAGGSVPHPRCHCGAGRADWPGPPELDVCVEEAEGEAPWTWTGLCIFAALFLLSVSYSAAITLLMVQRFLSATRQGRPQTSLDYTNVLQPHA

Row | Binder | Ratio pH 7.4/pH6.0 (of KD)
1 | B1 | 7.5
2 | B2 | 23.5
3 | B3 | 31.1
4 | B4 | 20.3

Target: T1, human immunoglobulin E (hIgE)
Test: SPR (Biacore) on hIgE
Method: The ratio of KD measured at pH 5.5 versus KD measured at pH 7.4 was calculated for each of the CL-2C antibodies.

Row | Binder | KD Ratio pH 5.5/pH 7.4
5 | B5 | 4.6
6 | B6 | 3.9
7 | B7 | 3.8
8 | B8 | 8.5
9 | B9 | 2.5
10 | B10 | 7.9
11 | B11 | 7
12 | B12 | 6.2
13 | B13 | 17.3
14 | B14 | 3.2
15 | B15 | 0.7
16 | B16 | 6.1
17 | B17 | 4.6
18 | B18 | 6.5
19 | B19 | 3.3
20 | B20 | 3
21 | B21 | 7.4

Row | Binder | KD Ratio pH 5.5/pH 7.4
22 | B22 | 0.3
23 | B23 | 1.1
24 | B24 | 4.3
25 | B25 | 8.9
26 | B26 | 5.2
27 | B27 | 0.6
28 | B28 | 7.1
29 | B29 | 6
30 | B30 | 1
31 | B31 | 9
32 | B32 | 0.6
33 | B33 | 2.8
34 | B34 | 4.7
35 | B35 | 5.5
36 | B36 | 8.4
37 | B37 | 1.1
38 | B38 | 0.2

Target: T1, human immunoglobulin E (hIgE)
Test: SPR (Biacore), pH 6.0

Row | Binder | Kd | koff | kon
39 | B1 | 64.5 nM | 0.0148 s⁻¹ | 232000 M⁻¹ s⁻¹
40 | B2 | 206 nM | 0.0895 s⁻¹ | 453000 M⁻¹ s⁻¹
41 | B3 | 190 nM | 0.0375 s⁻¹ | 206000 M⁻¹ s⁻¹
42 | B4 | 312 nM | 0.0986 s⁻¹ | 243000 M⁻¹ s⁻¹

Target: T1, human immunoglobulin E (hIgE)
Test: SPR (Biacore), pH 7.4

Row | Binder | Kd | koff | kon
43 | B1 | 8.59 nM | 0.00182 s⁻¹ | 213000 M⁻¹ s⁻¹
44 | B2 | 8.78 nM | 0.00251 s⁻¹ | 290000 M⁻¹ s⁻¹
45 | B39 | – | 0.00356 s⁻¹ | –
46 | B3 | 6.12 nM | 0.00244 s⁻¹ | 398000 M⁻¹ s⁻¹
47 | B4 | 15.4 nM | 0.00391 s⁻¹ | 253000 M⁻¹ s⁻¹

Target: T2, recombinant Motavizumab human IgE (rMota-hIgE) (human, UniProt P01854 1-428)
T2 construct: also called Recombinant IgE (argenx)
Test: hIgE binding ELISA, pH 7.4
Method: Briefly a Maxisorp plate was coated with recombinant human respiratory syncytial virus protein F (RSV-F) (0.5 μg/mL), then blocked with PBS with 3% BSA and 0.05% Tween. […] After several washing steps at pH 7.4 or pH 5.5, detection of the bound mAbs was carried out with an anti-human Fc-HRP antibody.

T2 sequence (P01854 other isoform, or with tags, fused parts or gaps limits assumed, form in doubt): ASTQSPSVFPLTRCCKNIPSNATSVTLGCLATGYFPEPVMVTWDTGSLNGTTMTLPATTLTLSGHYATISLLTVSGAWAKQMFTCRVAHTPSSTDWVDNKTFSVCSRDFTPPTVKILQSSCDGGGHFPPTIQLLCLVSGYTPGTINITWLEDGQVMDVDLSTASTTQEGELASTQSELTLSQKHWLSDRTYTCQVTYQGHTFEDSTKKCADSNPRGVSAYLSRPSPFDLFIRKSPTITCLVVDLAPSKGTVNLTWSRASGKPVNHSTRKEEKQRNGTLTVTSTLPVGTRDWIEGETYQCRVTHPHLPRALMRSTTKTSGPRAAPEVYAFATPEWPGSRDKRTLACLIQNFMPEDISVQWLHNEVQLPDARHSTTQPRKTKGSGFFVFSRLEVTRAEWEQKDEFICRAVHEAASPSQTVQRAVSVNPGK

Row | Binder | EC50
48 | B1 | 0.015 µg/mL
49 | B2 | 0.0156 µg/mL
50 | B3 | 0.0152 µg/mL
51 | B4 | 0.0191 µg/mL

Target: T1, human immunoglobulin E (hIgE)
Test: competition ELISA, hIgE to hFcεRIα

Row | Binder | IC50
52 | B1 | 35 nM
53 | B2 | 585 nM
54 | B39 | 9.49 nM
55 | B4 | 446 nM
